{"source": "the DeepSol protein solubility set", "data": [{"assay": "soluble on expression in E. coli; label from the status in PepcDB or PDB records", "values": [{"sequence": "VEPDIRTGTIQDVQHVVILMQENRSFDHYFGHLNGVRGFNDPRALKRQDGKPVWYQNYKYEFSPYHWDTKVTSAQWVSSQNHEWSAFHAIWNQGRNDKWMAVQYPEAMGYFKRGDIPYYYALADAFTLCEAYHQSMMGPTNPNRLYHMSGRAAPSGDGKDVHIGNDMGDGTIGASGTVDWTTYPERLSAAGVDWRVYQEGGYRSSSLWYLYVDAYWKYRLQEQNNYDCNALAWFRNFKNAPRDSDLWQRAMLARGVDQLRKDVQENTLPQVSWIVAPYCYCEHPWWGPSFGEYYVTRVLEALTSNPEVWARTVFILNYDEGDGFYDHASAPVPPWKDGVGLSTVSTAGEIEVSSGLPIGLGHRVPLIAISPWSKGGKVSAEVFDHTSVLRFLERRFGVVEENISPWRRAVCGDLTSLFDFQGAGDTQVAPDLTNVPQSDARKEDAYWQQFYRPSPKYWSYEPKSLPGQEKGQRPTLAVPYQLHATLALDIAAGKLRLTLGNDGMSLPGNPQGHSAAVFQVQPREVGNPRFYTVTSYPVVQESGEELGRTLNDELDDLLDANGRYAFEVHGPNGFFREFHGNLHLAAQMARPEVSVTYQRNGNLQLNIRNLGRLPCSVTVTPNPAYTREGSRRYELEPNQAISEVWLLRSSQGWYDLSVTASNTEANYLRRLAGHVETGKPSRSDPLLDI", "soluble on expression in E. coli": "not soluble"}, {"sequence": "VEQELATKMLQIQSKRFYLDVKQNRRGRFIKVAEIGADGRRSQIYLALSTAAEFRDHLSSFSDYYASLGPPNTDNLPEDGKLKSEMMIKDYRRYYLDLKENARGRFLRVSQTITRGGPRSQIALPAQGMIEFRDALTDLLEEFGAN", "soluble on expression in E. coli": "soluble"}, {"sequence": "VGDFNYYASANWSCEQSKVLYKDEQKVPYEYLRTTGKPKGAIFGLVAEGFFTSQDEITKSPVIEGFNNIQPGDIKYKDQNNDGVINDFDKVMIGGDKPLSYFGIDLGFEWRGLEFSMFWQGVYNKDVLMSDWNLLEGFQTQGQVYGQAYENMLDRWTPETAATATFPRLSAGGNKYNQGNGWGSSFWLRSGNYIRLKNVSLGYNLPDSFCRNYLGGARVKVFVSGQNLFTKAANELVDPEVSFGNYPLQRCISTGINVKF", "soluble on expression in E. coli": "not soluble"}, {"sequence": "VGDYGPFGFDPDEFDRVIREGSEGLRDAFERIGRFLSSSGAGTGWSAIFEDLSRRSRPAPETAGEAGDGVWAIYTVDADGGARVEQVYATELDALRANKDNTDPKRKVRFLPYGIAVSVLDDPVDEAQ", "soluble on expression in E. coli": "soluble"}, {"sequence": "VGSEVSDKRTCVSLTTQRLPVSRIKTYTITEGSLRAVIFITKRGLKVCADPQATWVRDVVRSMDRKSNTRNNMIQTKPTGTQQSTNTAVTLTG", "soluble on expression in E. coli": "soluble"}, {"sequence": "VINQVESASKVIDWPLALKRSANKADLAKEMLLGLVESLPETQLSIREAIDVQDIAQIKRLVHKLNGACCYTGTPNLAKITIQLETQLKMGLSTEELEPEFLEFFEHIEQVLFAVPEALKEMSEN", "soluble on expression in E. coli": "not soluble"}, {"sequence": "VKKNVSGEPYVEGSGSNDVRTGAPIDEIDRILLDQLSRDARTPNNALAALAGIAPSTCLGRVRSLIDRGVIRGFHADIDPATLGRDLQAMIAVRVQANARQHLGQLAEQLATLDEVLNVYFIAGADDYLIHVATASSEELRRFVLDHLSAHPAVASTETILIFEHVRPRHRAPRTEQSSGR", "soluble on expression in E. coli": "soluble"}, {"sequence": "VLASILLSQAAYESNYGSSLLSVKYHNIYSLPARPGQEHIYLKDNVYSKGKWQYQKVDFAVFRDWSSSMSSYLEELRQGRWGESTYKEVAGTTSYKVAAEKLQAAGFNSDPDYTKHLISIIETYNL", "soluble on expression in E. coli": "not soluble"}, {"sequence": "VLGAIENVEIADIKQAFTARIDTGATTSSLNAVDLQEFERNGSQWVRFHLVNQDVKADDGKLEWITAPVIRNVKIRQATADDAERRPVVELWIKLGAIHEKVQFTLADRSHMTHSVLLGREFIQDIAVVDVSKEFVQSKK", "soluble on expression in E. coli": "soluble"}, {"sequence": "VLKQGYMMKKGHRRKNWTERWFVLKPNIISYYVSEDLKDKKGDILLDENCCVESLPDKDGKKCLFLVKCFDKTFEISASDKKKKQEWIQAIHSTIHLLKLGS", "soluble on expression in E. coli": "soluble"}, {"sequence": "VLTELVDLPGGSFRMGSTRFYPEEAPIHTVTVRAFAVERHPVTNAQFAEFVSATGYVTVAEQPLDPGLYPGVDAADLCPGAMVFCPTAGPVDLRDWRQWWDWVPGACWRHPFGRDSDIADRAGHPVVQVAYPDAVAYARWAGRRLPTEAEWEYAARGGTTATYAWGDQEKPGGMLMANTWQGRFPYRNDGALGWVGTSPVGRFPANGFGLLDMIGNVWEWTTTEFYPHHRIDPPSTACCAPVKLATAADPTISQTLKGGSHLCAPEYCHRYRPAARSPQSQDTATTHIGFRCVADPVSG", "soluble on expression in E. coli": "soluble"}]}]}
